Data from patent US20080125498.

Tests used:
[1] = test system: N-terminal myc-tagged NR1-1a
[2] = molecular target: NMDA receptor NR1 subunit in adult rat brain membranes (UniProt P35439)
[3] = molecular target: T1, protease-activated receptor 1 (PAR1), mouse, endogenous in hippocampal slices and cultured astrocytes (UniProt P30558)
T1 sequence: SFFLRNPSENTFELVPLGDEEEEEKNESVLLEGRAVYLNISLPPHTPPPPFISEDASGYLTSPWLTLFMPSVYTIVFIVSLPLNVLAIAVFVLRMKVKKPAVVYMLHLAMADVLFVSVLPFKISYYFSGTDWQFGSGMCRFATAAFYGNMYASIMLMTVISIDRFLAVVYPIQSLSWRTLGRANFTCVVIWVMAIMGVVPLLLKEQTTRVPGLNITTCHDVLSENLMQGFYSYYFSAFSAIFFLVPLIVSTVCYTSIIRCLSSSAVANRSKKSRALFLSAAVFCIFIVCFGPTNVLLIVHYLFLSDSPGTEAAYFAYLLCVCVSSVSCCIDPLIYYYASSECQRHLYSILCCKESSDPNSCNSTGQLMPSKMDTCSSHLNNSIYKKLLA

[4] = test system: recombinant NR1-1b subunit transiently expressed in HEK 293 cells
[5] = molecular target: endogenous plasminogen in mouse brain slices (UniProt P20918)
Chain of endogenous plasminogen in mouse brain slices (P20918 20-812): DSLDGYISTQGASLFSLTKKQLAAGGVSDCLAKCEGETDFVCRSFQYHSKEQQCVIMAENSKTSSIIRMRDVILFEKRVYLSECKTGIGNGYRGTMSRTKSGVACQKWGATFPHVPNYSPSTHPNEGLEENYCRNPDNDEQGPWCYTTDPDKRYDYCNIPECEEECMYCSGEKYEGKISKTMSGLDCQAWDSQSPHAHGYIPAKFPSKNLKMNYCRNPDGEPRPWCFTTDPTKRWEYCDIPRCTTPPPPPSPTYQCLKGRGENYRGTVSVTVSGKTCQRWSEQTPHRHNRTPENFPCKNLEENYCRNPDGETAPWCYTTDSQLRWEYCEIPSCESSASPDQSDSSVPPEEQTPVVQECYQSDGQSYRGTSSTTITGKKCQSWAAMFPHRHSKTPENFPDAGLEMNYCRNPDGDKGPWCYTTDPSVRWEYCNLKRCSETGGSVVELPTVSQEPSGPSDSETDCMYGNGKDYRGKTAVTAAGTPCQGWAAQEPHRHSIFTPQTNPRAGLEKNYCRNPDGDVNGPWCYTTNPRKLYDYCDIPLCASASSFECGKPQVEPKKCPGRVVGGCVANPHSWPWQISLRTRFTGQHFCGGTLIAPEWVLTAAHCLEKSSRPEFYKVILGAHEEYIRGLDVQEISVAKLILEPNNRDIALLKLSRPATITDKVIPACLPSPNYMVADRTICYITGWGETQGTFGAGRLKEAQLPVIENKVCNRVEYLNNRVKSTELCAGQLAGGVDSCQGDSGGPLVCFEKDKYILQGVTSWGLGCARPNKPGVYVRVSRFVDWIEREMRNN

Chain of tissue plasminogen activator (P00750 36-562): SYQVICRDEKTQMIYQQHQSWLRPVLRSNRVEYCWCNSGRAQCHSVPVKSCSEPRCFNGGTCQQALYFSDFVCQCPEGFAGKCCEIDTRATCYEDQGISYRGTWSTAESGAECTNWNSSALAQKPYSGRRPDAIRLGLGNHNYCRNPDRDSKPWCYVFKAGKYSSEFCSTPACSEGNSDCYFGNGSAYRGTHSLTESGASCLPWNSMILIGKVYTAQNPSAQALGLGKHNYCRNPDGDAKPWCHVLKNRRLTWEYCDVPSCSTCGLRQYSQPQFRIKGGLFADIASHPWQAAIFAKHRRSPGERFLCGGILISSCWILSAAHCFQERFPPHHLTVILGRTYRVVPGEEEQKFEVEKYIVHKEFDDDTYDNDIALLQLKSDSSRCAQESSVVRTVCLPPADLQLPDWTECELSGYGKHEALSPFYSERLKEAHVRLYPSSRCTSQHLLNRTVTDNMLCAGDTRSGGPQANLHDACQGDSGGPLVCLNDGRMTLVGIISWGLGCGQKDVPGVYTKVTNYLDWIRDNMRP

## alpha-thrombin
[1]
  proteolysis of myc-tagged NR1-1a (immunoblot): Thrombin induced a similar shift in molecular weight for N-terminal myc-tagged NR1 as observed for the recombinant and native receptors detected with mAb54.1
[2]
  NR1 cleavage product in CA1 region after 15 minutes of 3 U/ml thrombin on slices: no NR1 cleavage product was observed in immunoblots of membranes obtained from the CA1 region microdissected immediately following the experiment
  maximal percent of NR1 cleaved, striatal membranes: the maximal observed cleavage of 52% suggests a thrombin resistant population of NR1 subunits exists
  percent of NR1 cleaved, all brain regions except striatum, 1-3 micromolar thrombin: 1-3 micromolar thrombin cleaved 100% or subunits in all brain regions except striatum
  percent of NR1 cleaved, cerebellar, cortical and brainstem membranes, 300 nM thrombin: cerebellar (n=7), cortical (n=5), and brainstem (n=5) NR1 subunits were insensitive to cleavage by 300 nM thrombin (30 U/ml)
  percent of NR1 cleaved, hippocampal membranes, 30 nM thrombin: 30 nM thrombin (3 U/ml) cleaved 20% of the NR1 subunit in hippocampal membranes (n=7)
  percent of NR1 cleaved, striatal membranes, 30 nM thrombin: 50% of NR1 in striatal membranes (n=10)
  proteolysis of NR1 (immunoblot): Incubation of brain membranes with thrombin for 1 hour at 37 °C resulted in the appearance of a new band that was 12 kD (n=10) lower in molecular weight than the parent band
[3]
  PI hydrolysis in hippocampal slices: Both thrombin and plasmin increased PI hydrolysis in wild type hippocampus, but not in the hippocampus of PAR1-/- mice
[4]
  proteolysis of recombinant NR1-1b (immunoblot): 10-1000 U/ml of thrombin cleaved both homomeric NR1-1b receptors (n=9/10 experiments) and heteromeric NR1-1b/NR2B receptors (n=6/6 experiments)

## plasmin
[3]
  PI hydrolysis after tPA application to hippocampal slices: Application of tPA to wild type hippocampal slices significantly increased PI hydrolysis compared with application to PAR1-/-hippocampal slices
  PI hydrolysis in hippocampal slices: Both thrombin and plasmin increased PI hydrolysis in wild type hippocampus, but not in the hippocampus of PAR1-/- mice

## tissue plasminogen activator
[5]
  PI hydrolysis in hippocampal slices: application of tPA did not increase PI hydrolysis in plasminogen-deficient mice
